Reference: the supplement of paper PMC9170038

System: MS2 coat protein
Assay: apparent KD of MS2 coat protein; designed switch direction (-1 OFF switch, 1 ON switch): 1; higher = weaker reporter binding
In short: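 RNA switches sharing common flanks were transcribed by stalled E. coli RNA polymerase on Illumina chips. A doubling series of SNAP-549-labelled MS2 coat protein, from 0.7 or 1.5 nM to 3 µM, was applied in Tris-HCl pH 7.5 buffer with KCl, MgCl2, BSA, DTT, tRNA and Tween-20. Each step lasted 0.8–1.5 h at the bottom of the series and 10–20 min at the top. Normalised cluster fluorescence was curve-fitted, giving apparent KD as the per-design median over clusters.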

[1] = Eterna round: R95, input ligand: FMN 200 uM
[2] = Eterna round: R95, input ligand: microRNA oligo, concentration not stated
[3] = Eterna round: R95, input ligand: none
[4] = input ligand: microRNA oligo, concentration not stated

Row | Sequence | apparent KD of MS2 coat protein [1] [nM] | apparent KD of MS2 coat protein [2] [nM] | apparent KD of MS2 coat protein [3] [nM] | apparent KD of MS2 coat protein (input ligand: FMN 200 uM) [nM] | apparent KD of MS2 coat protein [4] [nM] | apparent KD of MS2 coat protein (input ligand: none) [nM]
1 | CUCAAAACAAGUUGCAGUGUUCGUCUUUAACAUGAGGAUCACCCAUGUAAUAGCCCAGUAGAAGCGCUCGGGCCACC [Ceedbeen] (puzzle: Sensor for hsa-mir-208a) | 34.5 | 26.4 | 31.9 | – | – | –
2 | CUCAAACAUGAGGAUCACCCAUGUGUUGUCAUGGGAGGAUAUCCCAGUUCGUUGUCGUCGGGAGAAGGCCUAUGUC [× ×•×ª×• ×ž×“×™× ×” × ×—×ª-14] (puzzle: Same State 1) | – | 55.9 | – | – | – | –
3 | CUCAAACAUGAGGAUCACCCAUGUGUUGUCGUGGGAGGAUAUCCCGGUUCGGUGGCGUCGGGAGAAGGCCUAUGUC [× ×•×ª×• ×ž×“×™× ×” × ×—×ª-17] (puzzle: Same State 1) | – | 54.8 | – | – | – | –
4 | CUCACUUGGGUAGGAUAUCUAGGAUAUGGGAAAGACUAAGUCUGUAGGUCACCUAACCCAGAUGGAGAGAAGGACCCAACACUC [pwkr ssNG2 2FMN + F9.38] (Eterna round: R96, puzzle: Same State NG 2) | – | – | – | 57.9 | 2.64 | 33.1
5 | CUGAAAUGUCAAGGAUAUCACGUCGAUUAGACGUGAGAAGGUGAUCUGCACAUGAGGAUCACCCAUGUGUUACAUGGAAUUCAG [Brourd's SSNG1/1-A2 mod 13] (Eterna round: R96, puzzle: Same State NG 1) | – | – | – | 166 | 406 | 503
6 | CUGAGAUGUCAAGGAUAUCACGUCGAUUAGACGUGAGAAGGUGAUCUGCACAUGAGGAUCACCCAUGUGUUACAUGGAAUUCAG [Brourd's SSNG1/1-A2 mod 12] (Eterna round: R96, puzzle: Same State NG 1) | – | – | – | 567 | 278 | 889
7 | CUGAGCAAUCAAGGAUAUCACGUCGAAUAGACGUGAGAAGGUGAUCAUAACAUGAGGAUCACCCAUGUAUUACAUGAAGCUCAG [SSNG1/1-A1] (Eterna round: R96, puzzle: Same State NG 1) | – | – | – | 512 | 399 | 1280
8 | CUGAGCAAUCAAGGAUAUCACGUCGAUUAGACGUGAGAAGGUGAUCAUAACAUGAGGAUCACCCAUGUAUUACAUGGAGCUCAG [Brourd's SSNG1/1-A2 mod 1] (Eterna round: R96, puzzle: Same State NG 1) | – | – | – | 533 | 124 | 397
9 | CUGAGCAAUCAAGGAUAUCACGUCGAUUAGACGUGAGAAGGUGAUCAUUACAUGAGGAUCACCCAUGUGUUACAUGGAGCUCAG [Brourd's SSNG1/1-A2 mod 3] (Eterna round: R96, puzzle: Same State NG 1) | – | – | – | 395 | 54.9 | 159
10 | CUGAGCAGUCAAGGAUAUCACGUCGAUUAGACGUGAGAAGGUGAUUAAUACAUGAGGAUCACCCAUGUAAUACAUGAAGCUCAG [SSNG1/11-A2] (Eterna round: R96, puzzle: Same State NG 1) | – | – | – | 13.8 | 38.4 | 41.9
11 | CUGCAACAUGAGGAUCACCCAUGUAACCCGGUUACAGGAUAUGUGAUGGUGAUCGACAUGACAGAAGGGUGAUUGG [Indiinbi] (puzzle: Same State 1) | 41.5 | 21.5 | 29.6 | – | – | –
12 | CUGCACCGUGGAGGAUAUGGGCUGAGGCCAGGACAACCCUGGCCAACAUGAGGAUCACCCAUGUCCCAGAAGGCCACAGUGCUA [Zaenmaxe] (Eterna round: R96, puzzle: Same State NG 2) | – | – | – | 15.1 | 86.7 | 112
13 | CUGCGUAACACAGGAUAUACCUCCGCAAGGAACGUAGAAGGGUGAGUAGCAGACAUGAGGAUCACCCAUGUAAAGGCCAAGGCC [Enqudiso] (Eterna round: R96, puzzle: Same State NG 1) | – | – | – | 48.4 | 95.7 | 98
14 | CUGCUACAUGAGGAUCACCCAUGUUGGAGUGAUGCAGGAUAUGUGGGACCAGAAGAUGAAACAGAAGGGCAAAGAA [JR_SS!_Sub005] (puzzle: Same State 1) | 98.4 | 119 | 97.6 | – | – | –
15 | CUGCUACAUGAGGAUCACCCAUGUUGGAGUGAUGCAGGAUAUGUGUGACCAGAAGAUGAAACAGAAGGGCAAAGAA [JR_SS!_Sub004] (puzzle: Same State 1) | 96.2 | 75.7 | 101 | – | – | –
16 | CUGCUCGUGUGAGGAUAUGCCGCCGUUUCGGCUGCAGAAGGUGCUACGUUACAUGAGGAUCACCCAUGUCUCUGUUGUUUCGUU [salish99_SSNG1_r04_947] (Eterna round: R96, puzzle: Same State NG 1) | – | – | – | 20.2 | 19 | 22.8

Row | Sequence | apparent KD of MS2 coat protein [1] [nM] | apparent KD of MS2 coat protein [2] [nM] | apparent KD of MS2 coat protein [3] [nM] | apparent KD of MS2 coat protein (input ligand: FMN 200 uM) [nM] | apparent KD of MS2 coat protein [4] [nM] | apparent KD of MS2 coat protein (input ligand: none) [nM]
17 | CUGUGUUGCGGGCAGGAUAUGUAUUGGGAUACAUGAGGAUCACCCAUGUGCGGGUGUUUCACCCGACAGAAGGGCCAAUCGCGAC [JL-ss2-3.22 ViennaUCT mod] (puzzle: Same State 2) | 200 | 370 | 472 | – | – | –
18 | CUUAACAGAGGAGGAUAUGCAGAGGAUCACCCUGUAGAAGGCCACAGAGGAGGAUAUGCAGAGGAUCACCCUGUAGAAGGCCAC [pwkr ssNG DX.8] (Eterna round: R96, puzzle: Same State NG 1) | – | – | – | 622 | 143 | 280
19 | CUUCGGAAGCGAGGAUAUGCAGAGGAUCACCCUGCAGAAGGCGCAAAAGCGAGGAUAUGCAGAGGAUCACCCUGCAGAAGGCGC [pwkr ssNG DX.34] (Eterna round: R96, puzzle: Same State NG 1) | – | – | – | 43 | 15.7 | 32.4
20 | CUUGGGUGGCUGGAGGAUAUUCGAGUGGUAACAUGAGGAUCACCCAUGUGUCGCGCGGUACACGAGGAGAAGGCUGGCGGCCGGC (puzzle: Same State 2) | – | 84.8 | – | – | – | –
21 | CUUUUUAAUGCAGGAUAUGAUCAACAUGAGGAUCACCCAUGUGGCGUUGUGAGUAGGGAGAGUGAUCAGAAGGGCAUCUCCUCG [SS-NG2-LRO08] (Eterna round: R96, puzzle: Same State NG 2) | – | – | – | 68 | 45.1 | 62.4
22 | GAAAAACAUGAGGAUCACCCAUGUGAGAAUAUGGGAGGAUAUACGAGGACGAGAGUCAAGGUAGAAGGCCUAAAAG [Garnet 75] (Eterna round: R96, puzzle: Same State 1) | – | – | – | 45.3 | 255 | 314
23 | GAAAAGGCGACGCAGGAUAUGAAAGGUGAAACAUGAGGAUCACCCAUGUGCUACCUUCCGAUAAAUCAGAAGGGCGACGCCAAGC [Soleusat] (puzzle: Same State 2) | 9.79 | 8.54 | 9.6 | – | – | –
24 | GAAAGAGGAAGCGAGGAUAUCGUGUUGAGUACAUGAGGAUCACCCAUGUUGUAGGUAGAGGUAGGCGAGAAGGCGCAGGAGAAGA [JR_SS2_Sub0101] (puzzle: Same State 2) | 60 | 40.6 | 55.4 | – | – | –
25 | GAAGACAUAGUUCAGGAUAUAGGAAUAGUCACAUGAGGAUCACCCAUGUGCAUUUAUAUGCGCACUUAGAAGGGAGGUAGUUAUC [SameState2 Malc#23] (Eterna round: R96, puzzle: Same State 2) | – | – | – | 39.4 | 29.4 | 39.4
26 | GAAGCGGCAGAAUAAAACAUGAGGAUCACCCAUGUCGCGGUUUAGGAUAUGGGACGGGUAUGAACCCAGAAGGAGACCGCAGGC [Eternabot solution 2] (Eterna round: R96, puzzle: Same State NG 3) | – | – | – | 32.7 | 33.8 | 56.2
27 | GAAGGAUGAGCGUAGGAUAUAGGAGGAGUGACAUGAGGAUCACCCAUGUAGUAAGAGGGAGGGUACUAGAAGGACGAGGAAGAAG [JR_SS2_Sub066] (puzzle: Same State 2) | 602 | 6 | 16.3 | – | – | –
28 | GAAGGAUGAGCGUAGGAUAUAGGAGGAGUGACAUGAGGAUCACCCAUGUGGUAUGAGGGAGGAUUCUAGAAGGACGCGGUAGAAG [JR_SS2_Sub065] (puzzle: Same State 2) | 89.9 | 150 | 161 | – | – | –
29 | GACCGCGAGGAAGGAUAUCGAGCCUUAUUGGCUCGAGAAGGUCCAUAAAGGACAUGAGGAUCACCCAUGUGGUGAGAAGCGGUC [Mat - Same State NG 1 - JL mod - D76] (Eterna round: R96, puzzle: Same State NG 1) | – | – | – | 187 | 1430 | 1160
30 | GACGAGGUGGGAGGAUAUAGCCCGUGGACUGUACCCGAACAUGAGGAUCACCCAUGUCGAGAAACCUAGAAGGCCUACAACGUA [Eternabot solution 11] (Eterna round: R96, puzzle: Same State NG 2) | – | – | – | 16.8 | 10.8 | 38.4
31 | GAGAGAGGAAGCGAGGAUAUCGUGUUGAGUACAUGAGGAUCACCCAUGUUGUAGGUAGAGGUAGGCGAGAAGGCGCAGGAGAAGA [JR_SS2_Sub0100] (puzzle: Same State 2) | 50.2 | 39.3 | 41 | – | – | –
32 | GAGAGAGGAAGCGAGGAUAUCGUGUUGAGUACAUGAGGAUCACCCAUGUUGUAGGUAGAGGUAGGCGAGAAGGCGCAGGAGAGGG [JR_SS2_Sub099] (puzzle: Same State 2) | 43 | 43.2 | 51 | – | – | –
